Experimental data from paper doi:10.1101/2024.07.23.604771.

Molecular target: FLAG-2xStrep-PNO1 (UniProt Q9NRX1)
Assay: co-IP

UniProt Q9NRX1, sequence (Q9NRX1 whole entry): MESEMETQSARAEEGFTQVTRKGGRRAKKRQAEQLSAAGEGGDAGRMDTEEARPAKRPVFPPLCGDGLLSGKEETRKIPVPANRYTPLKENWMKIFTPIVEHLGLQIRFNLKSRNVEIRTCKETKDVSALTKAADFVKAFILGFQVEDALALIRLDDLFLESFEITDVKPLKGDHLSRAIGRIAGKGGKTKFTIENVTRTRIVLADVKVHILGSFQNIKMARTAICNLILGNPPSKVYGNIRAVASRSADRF

fold increase of association, lytic against latent cells: 3 fold
Substance: EMG1 (from UniProt Q92979 1-244) (natural protein)
